Laboratory results published in PMC3099712.

Assays:
[1] = molecular target: GFP-tagged mouse IGFLR1 on HEK293T cells (mouse); experiment: radioligand binding
[2] = molecular target: GFP-tagged human IGFLR1 on HEK293T cells (human); experiment: radioligand binding

FLAG-IGFL1 (human insulin growth factor-like family member 1), sequence (Q6UW32 24-110): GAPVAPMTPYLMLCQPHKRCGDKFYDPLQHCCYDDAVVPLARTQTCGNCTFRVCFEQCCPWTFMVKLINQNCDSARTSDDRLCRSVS
FLAG-mIGFL (mouse insulin growth factor-like protein), sequence (Q6B9Z0 24-140): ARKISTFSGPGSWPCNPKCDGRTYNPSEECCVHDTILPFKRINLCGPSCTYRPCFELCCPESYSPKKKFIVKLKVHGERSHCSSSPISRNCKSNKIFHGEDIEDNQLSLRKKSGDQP

Substance: FLAG-mIGFL (mouse insulin growth factor-like protein) (from UniProt Q6B9Z0 24-140) (ligand)
- Kd [1]: 0.73 nM

Substance: FLAG-IGFL1 (human insulin growth factor-like family member 1) (from UniProt Q6UW32 24-110) (ligand)
- Kd [2]: 0.31 nM
